# EP4671273A1 (Anaveon AG, dated 2025)
# Positions count from the first letter of the chain named.
# B1: MIZ926 (antibody, human IgG1, V domains shown)
# VH: EVQLVESGGGSVKPGGSLKLSCAASGLTFSHYYMYWVRQTPEKRLEWVAIISDGGDYTHYSDSVKGRFTISRDNAKNNLYLQMSSLQSEDTAMYYCAGDYGYGYEGWFAYWGQGTLVTVST
# VL: DIVMTQSQKFMSTSVGDRVSVTCKASQNVDTYVAWYQQKPGQSPKALIYSTSYRYSGVPDRFTGSGSGTDFTLTISNVQSEDLAEYFCQQYNSYPWTFGGGTKLEIK
# B2: LKK631 (antibody, human IgG1, V domains shown)
# VH: EVQLQQFGAEVVKPGASVKMSCKASGYTFTDYNMNWVKQSHEKSLEWIGDIHPKFHSTNYNQKFKGKATLTIDTSSSTAYMELRNLTSEDTAVYYCARVGNYVYFVMDYWGQGTSVTVSS
# VL: SIVMTQTPKFLLVSAGDRVTITCKASQSVSNDVAWYQQKPGQSPKLLIYYASNRYTGVPDRFSGSGYGTDFTFTISTVQAEDLAVYFCQQDYTSPWTFGGGTKLEIK
# B3: ZAP122 (antibody, human IgG1, V domains shown)
# VH: QVQLQESGPGLVKPSETLSLTCTVSGGSISSDFWGWIRQPPGKGLEWIGYISSRGSTNYNPSLKRRVTISVDTSRNQFSLKLSSVTAADTAVYYCARSAGVTDFDFWGQGTLVTVSS
# VL: DIQMTQSPSSVSASVGDRVTITCRASQGISSWLAWYQHKPGKAPKLLIYVASSLQSGVPSRFSGSGSGTDFTLTISSLQPEDFATYYCQQANSFPLTFGGGTKVEIK
# B4: XVT458-z2-m6 (antibody, human IgG1, V domains shown)
# VH: VQLVQSGAEVKKPGASVKVSCKASGYTFTNFYIHWVRQAPGQGLEWMGSIYPNYGITAYNQKFKDRVTMTVDTSTSTAYMELRSLRSDDTAVYYCARGYSYAMDYWGQGTTVTVSS
# VL: DIQMTQSPSSVSASVGDRVTITCSASQGISGDLNWYQQKPGKAPKLLIYHTSQLHSDVPSRFSGSGSGTDFTLTISSLQPEDFATYYCQGYSKDLLTFGGGTKLEIK
# notes: human IgG1; also called anti-PD-1 antibody clone XVT458-z2-m6
# B5: ACH836 (antibody, human IgG1, V domains shown)
# VH: B4 VH
# VL: B4 VL with I29A
# notes: human IgG1
# B6: BBJ602 (antibody, human IgG1, V domains shown)
# VH: B4 VH with A102G
# VL: B4 VL
# notes: human IgG1
# B7: ZAP122m12 Fab (Fab, V domains shown)
# VH: B3 VH with D32Y
# VL: B3 VL
# notes: Fab
# B8: ZAP122m22 Fab (Fab, V domains shown)
# VH: B3 VH with V101A
# VL: B3 VL
# notes: Fab
# B9: ZAP122m15 Fab (Fab, V domains shown)
# VH: B3 VH with S52Y
# VL: B3 VL
# notes: Fab
# B10: ZAP122m26 Fab (Fab, V domains shown)
# VH: B3 VH with D105A
# VL: B3 VL
# notes: Fab
# B11: ZAP122m11 Fab (Fab, V domains shown)
# VH: B3 VH
# VL: B3 VL with T97A
# notes: Fab
# B12: ZAP122m16 Fab (Fab, V domains shown)
# VH: B3 VH with S53Y
# VL: B3 VL
# notes: Fab
# B13: ZAP122m19 Fab (Fab, V domains shown)
# VH: B3 VH with R97A
# VL: B3 VL
# notes: Fab
# B14: ZAP122m10 Fab (Fab, V domains shown)
# VH: B3 VH
# VL: B3 VL with L96A
# notes: Fab
# B15: ZAP122m9 Fab (Fab, V domains shown)
# VH: B3 VH
# VL: B3 VL with P95A
# notes: Fab
# B16: ZAP122m20 Fab (Fab, V domains shown)
# VH: B3 VH with S98A
# VL: B3 VL
# notes: Fab
# B17: ZAP122m24 Fab (Fab, V domains shown)
# VH: B3 VH with D103A
# VL: B3 VL
# notes: Fab
# B18: ZAP122m23 Fab (Fab, V domains shown)
# VH: B3 VH with T102A
# VL: B3 VL
# notes: Fab
# B19: ZAP122p2 Fab (Fab, V domains shown)
# VH: B3 VH
# VL: B3 VL with N92S
# notes: Fab
# B20: ZAP122p1 Fab (Fab, V domains shown)
# VH: B3 VH
# VL: B3 VL with N92Q
# notes: Fab
# B21: ZAP122m21 Fab (Fab, V domains shown)
# VH: B3 VH with G100A
# VL: B3 VL
# notes: Fab
# B22: ZAP122m18 Fab (Fab, V domains shown)
# VH: B3 VH with R65S
# VL: B3 VL
# notes: Fab; also called clone m18
# B23: ZAP122m13 Fab (Fab, V domains shown)
# VH: B3 VH with F33Y
# VL: B3 VL
# notes: Fab
# B24: ZAP122m27 Fab (Fab, V domains shown)
# VH: B3 VH with F106A
# VL: B3 VL
# notes: Fab
# B25: ZAP122m17 Fab (Fab, V domains shown)
# VH: B3 VH with R54S
# VL: B3 VL
# notes: Fab; also called clone m17
# B26: ZAP122m25 Fab (Fab, V domains shown)
# VH: B3 VH with F104A
# VL: B3 VL
# notes: Fab
# B27: ZAP122m14 Fab (Fab, V domains shown)
# VH: B3 VH with G35S
# VL: B3 VL
# notes: Fab
# Target: recombinant human IL-21 (rhIL-21) (human, UniProt Q9HBE4 30-162, limits assumed)
# Assay: cell-based or functional assay
# recombinant human IL-21 (rhIL-21), sequence (Q9HBE4 30-162 limits assumed): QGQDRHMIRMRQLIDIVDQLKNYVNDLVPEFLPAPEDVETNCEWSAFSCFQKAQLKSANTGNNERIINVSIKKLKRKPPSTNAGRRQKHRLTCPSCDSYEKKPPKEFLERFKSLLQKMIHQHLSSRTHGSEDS
Binder,"% pSTAT3+ Jurkat cells, 0.1 nM rhIL-21 + 0 nM antibody","% pSTAT3+ Jurkat cells, 0.1 nM rhIL-21 + 0.1012 nM antibody","% pSTAT3+ Jurkat cells, 0.1 nM rhIL-21 + 0.1602 nM antibody","% pSTAT3+ Jurkat cells, 0.1 nM rhIL-21 + 0.2536 nM antibody","% pSTAT3+ Jurkat cells, 0.1 nM rhIL-21 + 0.4015 nM antibody","% pSTAT3+ Jurkat cells, 0.1 nM rhIL-21 + 0.6355 nM antibody","% pSTAT3+ Jurkat cells, 0.1 nM rhIL-21 + 1.006 nM antibody","% pSTAT3+ Jurkat cells, 0.1 nM rhIL-21 + 1.5925 nM antibody","% pSTAT3+ Jurkat cells, 0.1 nM rhIL-21 + 2.5209 nM antibody","% pSTAT3+ Jurkat cells, 0.1 nM rhIL-21 + 3.9906 nM antibody"
B1,82.5%,75.1%,72.4%,70.7%,69.9%,68.5%,65.3%,64.8%,64.5%,61.8%
B2,82.1%,81%,72.4%,71.4%,71.5%,65.6%,69.5%,58.7%,55.1%,42%
B3,82%,33.3%,33.2%,18.2%,22.8%,33%,10.8%,9.01%,6.78%,5.32%

# Same assay, conditions: not given
Binder,"% pSTAT3+ Jurkat cells, 0.1 nM rhIL-21 + 6.3171 nM antibody","% pSTAT3+ Jurkat cells, 0.1 nM rhIL-21 + 10 nM antibody"
B1,57.5%,57.5%
B2,44.5%,41.1%
B3,8.64%,6.63%

# Target: T1, cynomolgus PD-1 (#PD1-C52H5, AcroBiosystems) (cynomolgus monkey, UniProt B0LAJ3 25-170)
# T1 construct: bought; also called cynomolgus monkey PD-1; not shown: the vendor's tag on the recombinant protein (AcroBiosystems #PD1-C52H5)
# Assay: SPR, PD-1 on captured IgG1
# T1 sequence (B0LAJ3 entry or part of it limits assumed, form in doubt): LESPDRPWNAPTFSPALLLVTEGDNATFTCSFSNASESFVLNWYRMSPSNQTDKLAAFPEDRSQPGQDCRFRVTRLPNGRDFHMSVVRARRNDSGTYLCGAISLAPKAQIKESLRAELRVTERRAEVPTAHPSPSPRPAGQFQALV
Binder,Kd,koff,kon
B4,0.306 nM,0.000153 s⁻¹,499000 M⁻¹ s⁻¹
B5,0.205 nM,0.000101 s⁻¹,493000 M⁻¹ s⁻¹
B6,8.53 nM,3.15 s⁻¹,3.69e+08 M⁻¹ s⁻¹

# Target: T2, human PD-1 (#PD1-H82E4, AcroBiosystems) (human, UniProt Q15116 25-167)
# T2 construct: bought
# Assay: SPR, PD-1 on captured IgG1
# T2 sequence (Q15116 25-167 limits assumed): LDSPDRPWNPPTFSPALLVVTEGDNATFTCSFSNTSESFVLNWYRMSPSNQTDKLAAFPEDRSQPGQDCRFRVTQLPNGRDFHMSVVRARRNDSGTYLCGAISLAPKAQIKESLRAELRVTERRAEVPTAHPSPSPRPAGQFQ
Binder,Kd,koff,kon
B4,0.522 nM,0.000174 s⁻¹,333000 M⁻¹ s⁻¹
B5,0.342 nM,0.000117 s⁻¹,344000 M⁻¹ s⁻¹
B6,18.1 nM,0.0278 s⁻¹,1.54e+06 M⁻¹ s⁻¹

# Target: T3, Recombinant hIL-21-Fc (AcroBiosystems) (human, UniProt Q9HBE4 30-162)
# T3 construct: bought; also called rhIL-21; not shown: Fc of the bought reagent, not described
# Assay: SPR, Fab on captured rhIL-21-Fc
# T3 sequence (Q9HBE4 30-162): as the sequence (Q9HBE4 30-162 limits assumed) above
Binder,Kd,koff,kon,binding result
B7,8.83 nM,0.00424 s⁻¹,481000 M⁻¹ s⁻¹,–
B8,8.73 nM,0.0034 s⁻¹,389000 M⁻¹ s⁻¹,–
B9,< 0.0174 nM,< 1e-05 s⁻¹,574000 M⁻¹ s⁻¹,–
B10,3.01 nM,0.000701 s⁻¹,233000 M⁻¹ s⁻¹,–
B11,0.0404 nM,1.46e-05 s⁻¹,363000 M⁻¹ s⁻¹,–
B12,< 0.0283 nM,< 1e-05 s⁻¹,353000 M⁻¹ s⁻¹,–
B13,6.08 nM,0.000775 s⁻¹,127000 M⁻¹ s⁻¹,–
B14,2.4 nM,0.000613 s⁻¹,256000 M⁻¹ s⁻¹,–
B15,0.249 nM,5.93e-05 s⁻¹,238000 M⁻¹ s⁻¹,–
B16,0.0435 nM,1.94e-05 s⁻¹,446000 M⁻¹ s⁻¹,–
B17,–,–,–,no binding
B18,0.137 nM,3.29e-05 s⁻¹,240000 M⁻¹ s⁻¹,–
B19,0.0328 nM,1.14e-05 s⁻¹,348000 M⁻¹ s⁻¹,–
B20,0.0386 nM,1.38e-05 s⁻¹,357000 M⁻¹ s⁻¹,–
B21,2.19 nM,0.0011 s⁻¹,505000 M⁻¹ s⁻¹,–
B22,0.0463 nM,1.4e-05 s⁻¹,302000 M⁻¹ s⁻¹,–
B23,0.0565 nM,1.78e-05 s⁻¹,316000 M⁻¹ s⁻¹,–
B24,< 0.0242 nM,< 1e-05 s⁻¹,414000 M⁻¹ s⁻¹,–
B25,0.0842 nM,2.81e-05 s⁻¹,334000 M⁻¹ s⁻¹,–
B26,5.6 nM,0.00059 s⁻¹,105000 M⁻¹ s⁻¹,–
B27,1.01 nM,0.000263 s⁻¹,260000 M⁻¹ s⁻¹,–
